Here are results for 1 molecule from publication PMC7968997.

Common to all, as to test: fluorescence polarization
The target in one series is T1, RRM1 analog W55A (Homo sapiens, UniProt Q8IUH3 23-202, W55A;F124A;Y165A).
T1 sequence: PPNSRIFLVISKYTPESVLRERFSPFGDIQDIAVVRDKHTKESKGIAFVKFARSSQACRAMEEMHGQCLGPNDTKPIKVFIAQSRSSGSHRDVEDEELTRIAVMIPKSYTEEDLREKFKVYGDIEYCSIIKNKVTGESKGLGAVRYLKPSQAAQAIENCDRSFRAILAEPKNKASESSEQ

The target in a further series is T2, RRM1 analog F29A (Homo sapiens, UniProt Q8IUH3 23-202, F29A;F124A;Y165A).
T2 sequence: T1 sequence with F7A, A33W

The target of a further series is T3, RRM1 analog D53A (Homo sapiens, UniProt Q8IUH3 23-202, D53A;F124A;Y165A).
T3 sequence: T1 sequence with D31A, A33W

The next series has as its target T4, RRM1 analog R27A (Homo sapiens, UniProt Q8IUH3 23-202, R27A;F124A;Y165A).
T4 sequence: T1 sequence with R5A, A33W

The next series deals with T5, RRM2 analog F124A (Homo sapiens, UniProt Q8IUH3 23-202, F29A;F70A;F124A).
T5 sequence: T1 sequence with F7A, A33W, F48A, A143Y

The target in a further series is T6, RRM1 analog D114A (Homo sapiens, UniProt Q8IUH3 23-202, D114A;F124A;Y165A).
T6 sequence: T1 sequence with A33W, D92A

In another series the target is T7, RBM45 RRM1-2 WT (Homo sapiens, UniProt Q8IUH3 23-202).
T7 sequence: T1 sequence with A33W, A102F, A143Y

Series [1] concerns the target T8, RBM45 RRM1-2 quadruple mutant (Homo sapiens, UniProt Q8IUH3 23-202, F29A;F70A;F124A;Y165A).
T8 sequence: T1 sequence with F7A, A33W, F48A

Numbering of substitutions follows the chain as printed.

B1: GGACGG RNA (ssRNA)
RNA: GGACGG
B1: the Kd (in general, the concentration at which binding is half-saturated) with RRM1 analog W55A worked out at 3.54 µM; with RRM1 analog F29A, 7.38 µM; with RRM1 analog D53A it was 1.99 µM; with RRM1 analog R27A, 14.4 µM; with RRM2 analog F124A, 15.6 µM; with RRM1 analog D114A, 1.13 µM. This molecule also returned a Kd with RBM45 RRM1-2 WT of 0.457 ± 0.053 µM. For the same molecule, in series [1], the binding signal is around 150 fold decrease vs WT.
